Measurements from US20170128527A1.

Molecular target: Human Prolactin Receptor (PrlR) (human) (UniProt P16471)
Assay: cell-based or functional assay

UniProt P16471, sequence (P16471 25-622 limits assumed): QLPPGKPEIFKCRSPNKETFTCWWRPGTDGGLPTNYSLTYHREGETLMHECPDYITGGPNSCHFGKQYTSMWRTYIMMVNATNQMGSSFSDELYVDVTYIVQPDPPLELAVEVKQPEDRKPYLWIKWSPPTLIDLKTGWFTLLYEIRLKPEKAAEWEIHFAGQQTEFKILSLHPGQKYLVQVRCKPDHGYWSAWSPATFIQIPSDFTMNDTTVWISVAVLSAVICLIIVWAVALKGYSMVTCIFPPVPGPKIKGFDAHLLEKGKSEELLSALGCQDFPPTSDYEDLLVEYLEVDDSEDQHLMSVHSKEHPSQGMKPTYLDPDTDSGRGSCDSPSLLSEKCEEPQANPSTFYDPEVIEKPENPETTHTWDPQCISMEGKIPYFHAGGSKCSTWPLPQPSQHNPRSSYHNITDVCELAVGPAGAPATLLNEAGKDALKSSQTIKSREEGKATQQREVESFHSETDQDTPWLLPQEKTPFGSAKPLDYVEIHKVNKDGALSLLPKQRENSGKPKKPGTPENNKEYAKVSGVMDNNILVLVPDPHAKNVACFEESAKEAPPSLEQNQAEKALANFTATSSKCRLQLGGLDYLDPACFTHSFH

- Invasion (AU), U251 MG cells, CytoSelect Cell Invasion Assay, OD 560 nm; Prl 200 ng/ml + antagonist 200 ng/ml (control 0.380): 0.379 AU
- Invasion (AU), U251 MG cells, CytoSelect Cell Invasion Assay, OD 560 nm; antagonist alone (control 0.380): 0.385 AU
Substance: Prl receptor antagonist Prl Δ1-9 S33A, Q73L, G129R, K190R (SEQ ID NO: 13) (from UniProt P01236 38-227) (ligand)
